From patent publication US20180237480A1 (UNIVERSITY OF EDINBURGH, published 2018)

Assays:
human fibrinogen = target: T1, human fibrinogen (human, UniProt P02671 20-629; P02675 31-491; P02679 27-437); test: solid phase adherence assay, 1 µg Fg per well, absorbance 590 nm
T1 construct: The three chains are general knowledge about fibrinogen; also called human Fg
T1 sequence 1: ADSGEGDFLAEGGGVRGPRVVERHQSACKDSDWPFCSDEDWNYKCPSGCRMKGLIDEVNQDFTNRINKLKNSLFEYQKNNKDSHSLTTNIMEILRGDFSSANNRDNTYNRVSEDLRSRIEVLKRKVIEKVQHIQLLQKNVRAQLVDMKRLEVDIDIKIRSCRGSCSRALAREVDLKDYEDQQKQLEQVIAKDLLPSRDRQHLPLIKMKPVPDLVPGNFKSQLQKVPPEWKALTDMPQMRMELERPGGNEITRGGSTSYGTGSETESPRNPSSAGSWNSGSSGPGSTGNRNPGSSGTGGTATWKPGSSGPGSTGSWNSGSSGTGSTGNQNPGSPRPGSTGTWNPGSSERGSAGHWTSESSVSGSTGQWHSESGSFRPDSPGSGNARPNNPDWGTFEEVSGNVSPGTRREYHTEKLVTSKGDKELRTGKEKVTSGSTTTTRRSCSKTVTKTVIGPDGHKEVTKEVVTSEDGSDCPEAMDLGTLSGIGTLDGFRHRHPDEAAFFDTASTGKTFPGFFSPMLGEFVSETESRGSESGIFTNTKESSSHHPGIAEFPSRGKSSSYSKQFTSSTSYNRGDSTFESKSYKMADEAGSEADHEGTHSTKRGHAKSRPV
T1 sequence 2: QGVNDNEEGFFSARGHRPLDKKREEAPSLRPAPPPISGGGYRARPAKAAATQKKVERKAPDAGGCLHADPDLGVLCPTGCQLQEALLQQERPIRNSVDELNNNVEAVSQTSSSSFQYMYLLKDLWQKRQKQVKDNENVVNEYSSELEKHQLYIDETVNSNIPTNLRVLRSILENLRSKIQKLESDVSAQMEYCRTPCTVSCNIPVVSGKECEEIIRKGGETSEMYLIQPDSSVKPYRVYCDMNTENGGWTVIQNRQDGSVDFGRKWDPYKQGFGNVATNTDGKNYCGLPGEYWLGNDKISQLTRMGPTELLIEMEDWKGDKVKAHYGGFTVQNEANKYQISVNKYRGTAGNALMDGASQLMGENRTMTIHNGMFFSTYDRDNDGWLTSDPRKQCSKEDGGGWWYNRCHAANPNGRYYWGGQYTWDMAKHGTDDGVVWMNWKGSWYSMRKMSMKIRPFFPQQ
T1 sequence 3: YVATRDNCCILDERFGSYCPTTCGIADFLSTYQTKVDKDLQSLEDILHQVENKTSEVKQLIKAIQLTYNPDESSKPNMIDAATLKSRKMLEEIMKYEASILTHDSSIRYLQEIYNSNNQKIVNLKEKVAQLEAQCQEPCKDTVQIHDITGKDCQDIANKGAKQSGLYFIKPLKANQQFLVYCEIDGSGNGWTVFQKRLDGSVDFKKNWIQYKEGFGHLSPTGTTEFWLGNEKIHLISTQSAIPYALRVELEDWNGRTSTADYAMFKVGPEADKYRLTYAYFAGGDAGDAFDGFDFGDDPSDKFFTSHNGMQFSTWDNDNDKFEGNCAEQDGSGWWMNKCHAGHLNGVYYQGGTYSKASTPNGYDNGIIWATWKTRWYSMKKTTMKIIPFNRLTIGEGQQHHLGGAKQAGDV

bovine fibrinogen = target: T2, bovine fibrinogen (bovine, UniProt P02672 20-615; P02676 1-468; P12799 25-444); test: as above
T2 construct: The three chains are general knowledge about fibrinogen; also called bovine Fg
T2 sequence 1: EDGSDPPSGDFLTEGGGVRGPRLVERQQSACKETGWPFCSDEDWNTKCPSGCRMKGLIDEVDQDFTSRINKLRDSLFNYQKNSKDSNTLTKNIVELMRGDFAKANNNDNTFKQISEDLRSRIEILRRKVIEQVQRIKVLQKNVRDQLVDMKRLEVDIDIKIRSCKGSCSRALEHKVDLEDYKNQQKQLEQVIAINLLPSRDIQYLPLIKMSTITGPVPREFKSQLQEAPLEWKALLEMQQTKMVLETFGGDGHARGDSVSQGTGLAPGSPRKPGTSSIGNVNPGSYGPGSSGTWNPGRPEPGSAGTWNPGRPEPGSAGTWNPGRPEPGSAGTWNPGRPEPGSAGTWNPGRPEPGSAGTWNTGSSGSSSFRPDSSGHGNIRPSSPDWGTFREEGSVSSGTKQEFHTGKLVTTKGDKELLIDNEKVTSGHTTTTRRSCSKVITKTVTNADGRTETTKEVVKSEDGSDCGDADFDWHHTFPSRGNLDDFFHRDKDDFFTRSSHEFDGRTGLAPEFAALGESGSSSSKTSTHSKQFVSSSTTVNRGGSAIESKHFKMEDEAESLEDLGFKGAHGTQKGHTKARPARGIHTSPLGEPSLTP
T2 sequence 2: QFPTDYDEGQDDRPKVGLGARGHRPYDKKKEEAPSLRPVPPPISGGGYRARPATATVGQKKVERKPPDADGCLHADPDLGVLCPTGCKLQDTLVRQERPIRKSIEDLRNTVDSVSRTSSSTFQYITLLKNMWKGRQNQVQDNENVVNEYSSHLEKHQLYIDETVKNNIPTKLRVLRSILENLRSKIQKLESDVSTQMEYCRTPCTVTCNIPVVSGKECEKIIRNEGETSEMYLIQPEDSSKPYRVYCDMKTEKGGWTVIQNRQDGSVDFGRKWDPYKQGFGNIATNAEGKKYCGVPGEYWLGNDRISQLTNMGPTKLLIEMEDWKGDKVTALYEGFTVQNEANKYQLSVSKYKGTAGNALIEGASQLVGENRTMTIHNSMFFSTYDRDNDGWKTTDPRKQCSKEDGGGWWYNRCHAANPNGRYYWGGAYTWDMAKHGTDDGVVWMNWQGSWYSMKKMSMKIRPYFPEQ
T2 sequence 3: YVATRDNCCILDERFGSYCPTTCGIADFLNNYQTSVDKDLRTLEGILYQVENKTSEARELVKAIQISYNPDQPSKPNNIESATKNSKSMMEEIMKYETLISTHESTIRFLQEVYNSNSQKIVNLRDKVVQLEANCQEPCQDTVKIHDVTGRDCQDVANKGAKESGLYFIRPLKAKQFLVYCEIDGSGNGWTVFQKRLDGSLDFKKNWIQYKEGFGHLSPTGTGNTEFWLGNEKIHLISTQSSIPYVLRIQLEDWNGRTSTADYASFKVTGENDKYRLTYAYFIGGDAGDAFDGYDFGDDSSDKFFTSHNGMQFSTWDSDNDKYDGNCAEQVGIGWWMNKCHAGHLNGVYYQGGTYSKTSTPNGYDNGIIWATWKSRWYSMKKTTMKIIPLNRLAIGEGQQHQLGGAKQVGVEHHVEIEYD

B1: SpsD of S. pseudintermedius ED99, full-length, expressed on L. lactis MG1363 (pOri23) (other)
chain: SEVSATTQEHNVETEQTKTEGELTTEVAQQAVSESAPIAENMQKTTSVASENAKEVTASDSTQEVTKTEAKDTATMKDSEIAQPVSEVNKPVTQTAAPVAEPSTANKQTSPRQVQELTAPMDTKVINVENGTDVTSKVKVEKSSITGHQNKDKTYHQSNTVNPHKAERVTLNYDWSFENGIKAGDYFDFQLSDNVDTNGISTIKKVPHIMDSQNSEQIIAYGEINENNRVRYRFMDYVNQKENLKGKLSLNLFIKPDKVQDEGKITVTSQLGKEMTSQEFDIKYIDGVKSPSGITLNGRLDELSKADQSFTHYSIFKPKHNNLTNVTLRGTVSNNAQQNEKNGQVNVYEYIGQGELPQSAYANVNDTKQFNDITKSMKSIKNNSNGYEITFDMNKDNHPYIIVYQGHFNNNAKDFDFSTNATGYQNLNQSEYSYYWPYNYSFNLTWDNGVAFYSNNASGEGNDKPVPPTYGYSPTVNTIQDTHADYPVMTFQQPGTLEETEDSMPITTLTESGEDRGENTSPIIETTEDSQPVEFEEETNHGIQDVTLHADAVDFEEETNHGEQDTVHHSDVVEYDEDTTTGMLTGAISDHTTEEGTMEYTTDGLLIEFDDEMNPNVSGQYDDITTDTIEESSHIDTFTELESEFGQHDGIVTFEEDTIVEKPKTEKGNRVPLVIDLSTPKHNHQFNIQPTDPNIDTSATYRIGNFVWRDEDHNGVQNDGEHGLEGVLVTLKTADGVVLNTTTSDANGHYQFTNVQKGKYIVEFTTPEGYEATSKHTTANTEKDSDGLIANIDVTQDDMSIDAGFFPLENWNPQPEPKNPDDREKPAPEQPDVPQPEPKNPDDREKPAPEQPDVPQPEPKNPDDREKPAPEQPDVPQPEPKNPDDKEKPAPEQPDVPQPEPKNPDDKEKPAPEQPDAPQPKPMLPGEKVKPKPTHPGEAMQTTPQDKSTSQTDEALPKTGESSSQSSALIFGGLLSLLGLGLLRRSSKQNRSSMK
notes: also called L. lactis expressing SpsD; putative MSCRAMM SpsD
B1: binds (human fibrinogen); binds (bovine fibrinogen).
